Results published in PMC2917093 (Biochemistry, 2009).
“And” between values parts separate entries of the source, which are not always exact repeats. Equal values may be shown once.

Biological target: T1, human ribonucleotide reductase small subunit β′ (p53R2) (human, UniProt Q7LG56 1-351)
T1 sequence (looked up): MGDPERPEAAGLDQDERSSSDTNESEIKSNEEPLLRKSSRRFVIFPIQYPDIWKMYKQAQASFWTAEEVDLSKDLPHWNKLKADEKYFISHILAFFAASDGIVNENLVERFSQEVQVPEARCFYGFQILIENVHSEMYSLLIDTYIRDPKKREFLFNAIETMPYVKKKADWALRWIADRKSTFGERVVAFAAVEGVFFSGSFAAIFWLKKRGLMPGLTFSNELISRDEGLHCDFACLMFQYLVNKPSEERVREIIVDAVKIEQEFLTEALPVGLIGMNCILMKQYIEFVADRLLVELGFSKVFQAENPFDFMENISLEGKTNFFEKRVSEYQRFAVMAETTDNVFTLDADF
Assay: SEC

B1: human ribonucleotide reductase large subunit α (enzyme, UniProt P23921 1-792, looked up)
chain: MHVIKRDGRQERVMFDKITSRIQKLCYGLNMDFVDPAQITMKVIQGLYSGVTTVELDTLAAETAATLTTKHPDYAILAARIAVSNLHKETKKVFSDVMEDLYNYINPHNGKHSPMVAKSTLDIVLANKDRLNSAIIYDRDFSYNYFGFKTLERSYLLKINGKVAERPQHMLMRVSVGIHKEDIDAAIETYNLLSERWFTHASPTLFNAGTNRPQLSSCFLLSMKDDSIEGIYDTLKQCALISKSAGGIGVAVSCIRATGSYIAGTNGNSNGLVPMLRVYNNTARYVDQGGNKRPGAFAIYLEPWHLDIFEFLDLKKNTGKEEQRARDLFFALWIPDLFMKRVETNQDWSLMCPNECPGLDEVWGEEFEKLYASYEKQGRVRKVVKAQQLWYAIIESQTETGTPYMLYKDSCNRKSNQQNLGTIKCSNLCTEIVEYTSKDEVAVCNLASLALNMYVTSEHTYDFKKLAEVTKVVVRNLNKIIDINYYPVPEACLSNKRHRPIGIGVQGLADAFILMRYPFESAEAQLLNKQIFETIYYGALEASCDLAKEQGPYETYEGSPVSKGILQYDMWNVTPTDLWDWKVLKEKIAKYGIRNSLLIAPMPTASTAQILGNNESIEPYTSNIYTRRVLSGEFQIVNPHLLKDLTERGLWHEEMKNQIIACNGSIQSIPEIPDDLKQLYKTVWEISQKTVLKMAAERGAFIDQSQSLNIHIAEPNYGKLTSMHFYGWKQGLKTGMYYLRTRPAANPIQFTLNKEKLKDKEKVSKEEEEKERNTAAMVCSLENRDECLMCGS
**Q.** How did the “stoichiometry N” value turn out when B1 was run?
**A.** 1.2 α:β' and 1 α:β' and 1.06 α:β'
